Reference: article doi:10.1101/2024.07.16.603716

Target: VisA (SGO_2004) region containing its 7 G5 domains, residues 138-698, with a C-terminal His-tag (Streptococcus gordonii DL1)
Experiment: denaturing western blot

VisA (SGO_2004) region containing its 7 G5 domains, residues 138-698, with a C-terminal His-tag (domain or fragment)
stoichiometry N: 2
